In patent US20120231006A1 (Amgen, published 2012):

How the values were obtained:
[1] = target: T1, hOrai1-mOrai1 ECL2 (…) protein (human/mouse chimera, UniProt Q96D31 1-301); experiment: FACS, 293EBNA, RFI-POC grade; set-up: concentration or dose not given beside the values
T1 construct: also called Ch
T1 sequence (Q96D31 other isoform, or with tags, fused parts or gaps): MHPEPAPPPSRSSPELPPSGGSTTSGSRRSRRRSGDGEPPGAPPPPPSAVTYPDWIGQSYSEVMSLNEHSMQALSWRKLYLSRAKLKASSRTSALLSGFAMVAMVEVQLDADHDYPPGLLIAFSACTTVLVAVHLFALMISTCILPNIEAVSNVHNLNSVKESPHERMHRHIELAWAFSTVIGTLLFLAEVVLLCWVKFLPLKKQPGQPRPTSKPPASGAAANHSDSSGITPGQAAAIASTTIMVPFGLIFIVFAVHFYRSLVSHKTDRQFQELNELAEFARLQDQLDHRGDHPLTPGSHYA

[2] = target: T2, hOrai1-mOrai1 ECL2 (…) protein (human/mouse chimera, UniProt Q96D31 1-301); experiment: FACS, 293EBNA, RFI-POC grade; set-up: concentration or dose not given beside the values; remark: listed apart in the source
T2 construct: also called Ch
T2 sequence (Q96D31 other isoform, or with tags, fused parts or gaps): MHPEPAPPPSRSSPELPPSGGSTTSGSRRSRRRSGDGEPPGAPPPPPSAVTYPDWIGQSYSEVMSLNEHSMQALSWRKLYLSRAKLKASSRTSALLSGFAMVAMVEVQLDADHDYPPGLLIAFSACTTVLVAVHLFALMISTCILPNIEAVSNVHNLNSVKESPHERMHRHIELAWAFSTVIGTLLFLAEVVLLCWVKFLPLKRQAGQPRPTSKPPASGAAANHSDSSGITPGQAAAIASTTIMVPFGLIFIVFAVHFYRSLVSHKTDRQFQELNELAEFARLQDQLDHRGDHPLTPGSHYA

[3] = target: T3, hOrai1-mOrai1 ECL2 (SKPPA) protein (human/mouse chimera, UniProt Q96D31 1-301); experiment: FACS, 293EBNA, RFI-POC grade; set-up: concentration or dose not given beside the values
T3 construct: also called Ch

[4] = target: T4, hOrai1-mOrai1 ECL2 (…) protein (human/mouse chimera, UniProt Q96D31 1-301); experiment: FACS, 293EBNA, RFI-POC grade; set-up: concentration or dose not given beside the values; remark: listed apart in the source
T4 construct: also called Ch
T4 sequence (Q96D31 other isoform, or with tags, fused parts or gaps): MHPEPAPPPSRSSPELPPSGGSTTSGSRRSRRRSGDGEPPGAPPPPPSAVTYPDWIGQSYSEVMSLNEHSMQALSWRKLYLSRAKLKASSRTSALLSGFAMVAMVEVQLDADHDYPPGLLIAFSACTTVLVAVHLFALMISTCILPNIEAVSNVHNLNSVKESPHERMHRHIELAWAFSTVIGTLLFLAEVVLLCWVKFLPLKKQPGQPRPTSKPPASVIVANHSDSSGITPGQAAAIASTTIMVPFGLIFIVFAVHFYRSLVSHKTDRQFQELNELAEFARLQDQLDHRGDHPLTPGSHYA

[5] = target: T5, mOrai1-hOrai1 ECL2 chimeric protein (human/mouse chimera, UniProt Q8BWG9 1-304 (mouse entry)); experiment: FACS, 293EBNA, RFI-POC grade; set-up: concentration or dose not given beside the values
T5 construct: mouse Orai1 with human ECL2; also called Ch

[6] = target: T6, hOrai1-mOrai1 ECL2 (RPTSKPPA) protein (human/mouse chimera, UniProt Q96D31 1-301); experiment: FACS, 293EBNA, RFI-POC grade; set-up: concentration or dose not given beside the values
T6 construct: also called Ch

[7] = target: T7, hOrai1-mOrai1 ECL2 chimeric protein (human/mouse chimera, UniProt Q96D31 1-301); experiment: FACS, 293EBNA transfectants
T7 construct: human Orai1 with mouse ECL2; also called Ch
Text: FIG. 15A-B illustrates the results of FACS analysis showing binding to human Orai1 extracellular loop 2-mouse Orai1 mutant expressed on the surface of HEK-293-EBNA cells. HEK-293-EBNA cells were transiently transfected with mouse Orai1 mutant where human Orai1 extracellular loop 2 replaced the mouse Orai1 extracellular loop 2 and human Orai1 mutant where mouse Orai1 extracellular loop 2 replaced human extracellular loop 2. Transfected cells were stained first with recombinant monoclonal antibodies then counter-stained with a secondary phycoerythrin-labeled goat (“Gt”) anti-human (“Hu”) IgG F(ab′)₂ antibody fragment and visualized using FACS.
FACS binding analysis. Transfected 293EBNA cells transiently expressed hOrai1-mOrai1 ECL2 or mOrai1-hOrai1 ECL2 chimera. The transfected cells were harvested at 48 hours post-transfection. Cells transfected with pcDNA3.1 were used as negative controls. Cells were washed once with ice-cold 1×PBS, resuspended in ice-cold FACS buffer (1×D-PBS+2% goat serum), and 2×10⁵ cells in 100 μL were stained per antibody combination. All antibody incubation steps were performed on ice for 1 hour. […] Next, the unlabelled antibody was detected using goat F(ab′)₂ anti-mouse or anti-human IgG-phycoerythrin (IgG-PE), followed by a wash with 200 μL of ice-cold FACS buffer before flow cytometry analysis. Unstained cells and cells stained with detecting antibodies were used as negative controls. The values of relative level of fluorescence were calculated using FCS Express (De Novo Software) and mean values were calculated using log-transformed data (geometric mean). The results of the FACS analysis are shown in FIG. 15A-B, which supports the conclusion that the hOrai1 ECL2 domain is the region of hOrai1 where antibodies of the present invention bind.

[8] = target: T8, human Orai1 (human, UniProt Q96D31 1-301); experiment: FACS Kd, AM1-CHO/hOrai1/hSTIM1-YFP cells
T8 construct: on AM1-CHO/hOrai1/hSTIM1-YFP, AM1/hOrai1, HEK-293 transfectants, endogenous on Jurkat and blood cells; in Westerns from cell lysates; also called hOrai1; CRACM1
Description: The equilibrium plates were centrifuged at 500 g for 3 minutes and cell pellets were washed twice with 200 μL of ice cold FACS buffer (1×D-PBS+2% FBS). The cells were then incubated with a secondary antibody, goat anti-human Fc Cy5 at 5 μg/mL and 100 μL per well for 1 h on ice in the dark. Following the incubation, the cells were washed twice with 200 μL of ice-cold FACS buffer before flow cytometry analysis. The GeoMean values gated on live cell population measure the bound [Ab]. The inverse of the GeoMean values that reflects theoretical free [Ag] in the equilibrium solution was then calculated. The inverse values of the GeoMean read were used in KinExA® Pro software for analysis and Kd calculation for each antibody. The free [Ag] measure was plotted against the starting concentration of titrating component and from these plots at two different cell concentrations the Kd was obtained from curve fitting using n-curve analysis in KinExA Pro software. […] Shown in Table 14 (below) are the equilibrium dissociation constant (Kd) values of invented mAbs determined by FACS Kd measurement.

[9] = target: T9, mOrai1-hOrai1 ECL2 (…) protein (human/mouse chimera, UniProt Q8BWG9 1-304 (mouse entry)); experiment: FACS, 293EBNA; set-up: concentration or dose not given beside the values
T9 construct: also called Ch
Text: (§1) FIG. 16A-D illustrates the results of FACS analysis showing binding to the indicated mOrai1-hOrai1 ECL2 chimeric mutants expressed on the surface of HEK-293-EBNA cells. Transfected cells were stained first with recombinant monoclonal antibodies then counter-stained with a secondary phycoerythrin-labeled goat (“Gt”) anti-human (“Hu”) IgG F(ab′)₂ antibody fragment and visualized using FACS. In FIG. 16B and FIG. 16D, The values of Relative Fluorescence Intensity as Percent of Control (RFI-POC) are calculated from the relative fluorescence intensity geometric mean (Geo Mean). The geometric mean is an average calculated by multiplying a series of numbers and taking the nth root where n is the number of numbers in the series. It is a statistical average of a set of transformed numbers often used to represent a central tendency in a highly variable data set that minimizes the effects of extreme values.
(§2) Table 11A and Table 11B feature a schematic representation of the POC data from FIG. 16B and FIG. 16D, respectively, where the binding results are recorded as (+++) denoting binding POC from 40% to 100%, (++) for POC of 5% to less than 40%, (+) for POC from 1% to less than 5% and (−) as lack of binding with POC less than 1%.
T9 sequence (Q8BWG9 other isoform, or with tags, fused parts or gaps): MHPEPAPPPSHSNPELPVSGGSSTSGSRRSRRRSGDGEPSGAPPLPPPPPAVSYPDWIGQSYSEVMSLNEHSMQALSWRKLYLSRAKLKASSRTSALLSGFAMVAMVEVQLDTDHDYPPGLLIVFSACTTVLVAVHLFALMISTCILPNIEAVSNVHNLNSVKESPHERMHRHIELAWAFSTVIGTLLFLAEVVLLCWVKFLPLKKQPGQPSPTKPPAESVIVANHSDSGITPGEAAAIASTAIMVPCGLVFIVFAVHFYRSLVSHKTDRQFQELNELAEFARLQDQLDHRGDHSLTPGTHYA

[10] = target: T10, mOrai1-hOrai1 ECL2 (…) protein (human/mouse chimera, UniProt Q8BWG9 1-304 (mouse entry)); experiment: FACS, 293EBNA; set-up: concentration or dose not given beside the values; remark: listed apart in the source
T10 construct: also called Ch
Text: as §1, §2
T10 sequence (Q8BWG9 other isoform, or with tags, fused parts or gaps): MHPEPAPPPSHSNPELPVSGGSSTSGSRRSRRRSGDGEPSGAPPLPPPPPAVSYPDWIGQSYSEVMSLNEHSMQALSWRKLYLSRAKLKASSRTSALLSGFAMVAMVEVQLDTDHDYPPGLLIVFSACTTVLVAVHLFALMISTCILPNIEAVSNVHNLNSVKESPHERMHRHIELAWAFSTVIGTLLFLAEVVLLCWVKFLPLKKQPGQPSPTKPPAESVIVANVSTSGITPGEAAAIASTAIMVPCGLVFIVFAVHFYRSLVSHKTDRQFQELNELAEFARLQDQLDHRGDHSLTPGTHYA

[11] = target: T7, hOrai1-mOrai1 ECL2 chimeric protein; experiment: FACS, 293EBNA; set-up: concentration or dose not given beside the values
Text: as §1, §2

[12] = target: T11, mOrai1-hOrai1 ECL2 (…) protein (human/mouse chimera, UniProt Q8BWG9 1-304 (mouse entry)); experiment: FACS, 293EBNA; set-up: concentration or dose not given beside the values; remark: listed apart in the source
T11 construct: also called Ch
Text: as §1, §2
T11 sequence (Q8BWG9 other isoform, or with tags, fused parts or gaps): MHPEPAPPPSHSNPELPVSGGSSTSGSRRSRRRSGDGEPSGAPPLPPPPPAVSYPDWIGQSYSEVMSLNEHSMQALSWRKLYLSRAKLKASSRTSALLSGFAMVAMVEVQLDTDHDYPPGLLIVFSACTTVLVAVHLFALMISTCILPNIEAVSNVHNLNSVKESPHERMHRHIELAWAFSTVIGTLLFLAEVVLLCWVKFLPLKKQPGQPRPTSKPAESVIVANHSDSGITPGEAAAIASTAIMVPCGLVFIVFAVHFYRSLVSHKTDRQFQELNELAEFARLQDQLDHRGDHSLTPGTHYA

[13] = target: T12, mOrai1-hOrai1 ECL2 (SPTKPPAE) protein (human/mouse chimera, UniProt Q8BWG9 1-304 (mouse entry)); experiment: FACS, 293EBNA; set-up: concentration or dose not given beside the values
T12 construct: also called Ch
Text: as §1, §2

[14] = target: T13, mOrai1-hOrai1 ECL2 (AESVIV) protein (human/mouse chimera, UniProt Q8BWG9 1-304 (mouse entry)); experiment: FACS, 293EBNA; set-up: concentration or dose not given beside the values
T13 construct: also called Ch
Text: as §1, §2

[15] = target: T14, mOrai1-hOrai1 ECL2 (KPPAE) protein (human/mouse chimera, UniProt Q8BWG9 1-304 (mouse entry)); experiment: FACS, 293EBNA; set-up: concentration or dose not given beside the values
T14 construct: also called Ch
Text: as §1, §2

[16] = target: T15, mOrai1-hOrai1 ECL2 (…) protein (human/mouse chimera, UniProt Q8BWG9 1-304 (mouse entry)); experiment: FACS, 293EBNA; set-up: concentration or dose not given beside the values; remark: listed apart in the source
T15 construct: also called Ch
Text: as §1, §2
T15 sequence (Q8BWG9 other isoform, or with tags, fused parts or gaps): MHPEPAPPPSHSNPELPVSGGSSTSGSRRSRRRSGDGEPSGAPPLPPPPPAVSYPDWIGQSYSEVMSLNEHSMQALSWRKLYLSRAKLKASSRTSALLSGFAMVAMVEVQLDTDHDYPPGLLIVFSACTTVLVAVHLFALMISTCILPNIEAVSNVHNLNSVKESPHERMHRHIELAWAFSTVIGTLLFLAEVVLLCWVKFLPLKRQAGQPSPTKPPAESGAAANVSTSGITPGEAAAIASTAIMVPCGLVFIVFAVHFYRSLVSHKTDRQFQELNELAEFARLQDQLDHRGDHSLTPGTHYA

T14 sequence (Q8BWG9 other isoform, or with tags, fused parts or gaps): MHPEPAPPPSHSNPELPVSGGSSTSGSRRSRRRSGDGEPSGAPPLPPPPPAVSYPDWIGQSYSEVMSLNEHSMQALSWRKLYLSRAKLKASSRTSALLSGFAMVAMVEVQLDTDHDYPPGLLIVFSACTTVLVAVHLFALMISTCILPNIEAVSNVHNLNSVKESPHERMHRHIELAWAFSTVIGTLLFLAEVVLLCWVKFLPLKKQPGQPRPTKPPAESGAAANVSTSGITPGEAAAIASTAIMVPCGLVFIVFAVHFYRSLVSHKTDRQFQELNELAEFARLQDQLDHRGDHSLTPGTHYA
T8 sequence (Q96D31 whole entry): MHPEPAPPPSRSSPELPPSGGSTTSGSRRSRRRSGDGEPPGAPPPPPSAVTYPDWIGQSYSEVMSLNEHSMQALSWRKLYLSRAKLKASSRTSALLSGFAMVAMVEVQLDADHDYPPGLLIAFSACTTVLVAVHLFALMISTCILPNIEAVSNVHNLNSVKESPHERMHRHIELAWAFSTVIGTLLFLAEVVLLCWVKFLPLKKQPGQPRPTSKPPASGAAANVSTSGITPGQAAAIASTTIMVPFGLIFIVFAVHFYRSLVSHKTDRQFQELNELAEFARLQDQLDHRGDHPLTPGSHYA
T3 sequence (Q96D31 other isoform, or with tags, fused parts or gaps): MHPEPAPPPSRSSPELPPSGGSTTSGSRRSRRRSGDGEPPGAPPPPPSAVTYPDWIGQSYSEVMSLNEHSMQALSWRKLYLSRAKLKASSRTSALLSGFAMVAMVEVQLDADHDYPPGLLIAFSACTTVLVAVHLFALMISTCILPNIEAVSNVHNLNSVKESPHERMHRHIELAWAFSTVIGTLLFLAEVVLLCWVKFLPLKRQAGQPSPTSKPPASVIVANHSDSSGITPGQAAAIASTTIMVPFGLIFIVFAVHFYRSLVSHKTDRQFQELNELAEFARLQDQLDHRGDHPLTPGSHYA
T12 sequence (Q8BWG9 other isoform, or with tags, fused parts or gaps): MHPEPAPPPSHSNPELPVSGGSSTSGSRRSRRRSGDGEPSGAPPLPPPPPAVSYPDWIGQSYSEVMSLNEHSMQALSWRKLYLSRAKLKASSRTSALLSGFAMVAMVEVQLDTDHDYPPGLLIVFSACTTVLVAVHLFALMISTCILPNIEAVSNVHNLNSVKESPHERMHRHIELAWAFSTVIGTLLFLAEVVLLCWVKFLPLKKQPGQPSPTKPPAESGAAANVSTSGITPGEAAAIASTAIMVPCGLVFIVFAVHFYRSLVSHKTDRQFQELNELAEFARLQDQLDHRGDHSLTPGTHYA
T6 sequence (Q96D31 other isoform, or with tags, fused parts or gaps): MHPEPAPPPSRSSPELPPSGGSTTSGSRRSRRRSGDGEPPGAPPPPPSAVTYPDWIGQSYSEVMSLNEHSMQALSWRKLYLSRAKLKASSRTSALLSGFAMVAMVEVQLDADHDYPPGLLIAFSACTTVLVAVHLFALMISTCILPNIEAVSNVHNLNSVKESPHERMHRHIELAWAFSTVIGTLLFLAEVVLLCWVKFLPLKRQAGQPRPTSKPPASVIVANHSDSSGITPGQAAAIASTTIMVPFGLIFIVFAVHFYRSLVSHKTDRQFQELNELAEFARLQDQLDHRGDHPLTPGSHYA
T7 sequence (Q96D31 other isoform, or with tags, fused parts or gaps mutant): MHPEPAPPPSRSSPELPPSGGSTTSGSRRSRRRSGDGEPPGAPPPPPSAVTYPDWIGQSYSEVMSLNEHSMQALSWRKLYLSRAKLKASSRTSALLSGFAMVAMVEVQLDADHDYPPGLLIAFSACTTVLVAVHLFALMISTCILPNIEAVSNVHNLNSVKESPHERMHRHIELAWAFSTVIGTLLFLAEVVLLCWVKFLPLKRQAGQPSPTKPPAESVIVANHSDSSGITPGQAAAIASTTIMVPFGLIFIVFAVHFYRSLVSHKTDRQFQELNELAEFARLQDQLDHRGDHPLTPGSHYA
T5 sequence (Q8BWG9 other isoform, or with tags, fused parts or gaps mutant): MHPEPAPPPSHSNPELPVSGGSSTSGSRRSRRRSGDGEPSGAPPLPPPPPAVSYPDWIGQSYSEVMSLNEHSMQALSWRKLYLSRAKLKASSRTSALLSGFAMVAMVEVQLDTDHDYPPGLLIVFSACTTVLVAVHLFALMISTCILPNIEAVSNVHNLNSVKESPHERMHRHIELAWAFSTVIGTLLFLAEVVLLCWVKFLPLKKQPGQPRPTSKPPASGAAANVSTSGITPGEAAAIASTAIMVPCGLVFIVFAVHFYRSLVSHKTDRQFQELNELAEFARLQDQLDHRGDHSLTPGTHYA
T13 sequence (Q8BWG9 other isoform, or with tags, fused parts or gaps): as the sequence (Q8BWG9 other isoform, or with tags, fused parts or gaps mutant) above, with P218A, A219E, G221V, A222I, A223V counted along it

B1: mAb 5A4.2 (antibody, human IgG2, lambda, V domains shown)
VH: QVQLVQSGAEVKKPGASVKVSCKASGYTFTDYYMNWVRQAPGQGLEWMGWINPNSGGTKYAQKFQGRVTMTRDTSIRTAYMELSRLRSDDTAVYYCSREYGGNSDWFDPWGQGTLVTVSS
VL: QSVLTQPPSVSGAPGQRVTISCTGSSSNIGAGYDVHWYQQLPGTAPKLLIYGNSNRPSGVPDRFSGSKSGTSASLAITGLQAEDEADYYCQSYDNRLSDSVVIGGGTKLTVQG
notes: fully human IgG2 lambda, Campaign 2
percent of control (POC) of FACS Geo Mean [1]: 40 to 100%
percent of control (POC) of FACS Geo Mean [2]: 40 to 100%
percent of control (POC) of FACS Geo Mean [3]: 40 to 100%
percent of control (POC) of FACS Geo Mean [4]: 40 to 100%
percent of control (POC) of FACS Geo Mean [5]: 40 to 100%
percent of control (POC) of FACS Geo Mean [6]: 40 to 100%
binding result [7]: no binding (tested: 1 µg)
Kd [8]: 1.2 nM
POC (percent of control, FACS Geo Mean relative to binding to Ch. 1) [9]: < 1%
POC (percent of control, FACS Geo Mean relative to binding to Ch. 1) [10]: < 1%
POC (percent of control, FACS Geo Mean relative to binding to Ch. 1) [11]: < 1%
POC (percent of control, FACS Geo Mean relative to binding to Ch. 1) [12]: < 1%
POC (percent of control, FACS Geo Mean relative to binding to Ch. 1) [13]: < 1%
POC (percent of control, FACS Geo Mean relative to binding to Ch. 1) [14]: < 1%
POC (percent of control, FACS Geo Mean relative to binding to Ch. 1) [15]: < 1%
POC (percent of control, FACS Geo Mean relative to binding to Ch. 1) [16]: < 1%

B2: mAb 5F2.1 (antibody, human IgG2, lambda, V domains shown)
VH: QVQLVQSGAEVKKPGASVKVSCKASGYTFTDYYMNWVRQAPGQGLEWMGWINPNSGGTHYAQKFQGRVTMTRDTSISTAYMELSRLRSDDTAVYYCAREYGGYSDWFDPWGQGTLVTVSS
VL: QSVLTQPPSVSGAPGQRVTISCTGSRSNIGAGYDVHWYQQLPRTAPKLLIYDNSNRPSGVPDRFSGSKSGSSASLAITGLQAEDEADYYCQSYDNSLSDSVLIGGGTKLTVLG
notes: as for B1
percent of control (POC) of FACS Geo Mean [1]: 40 to 100%
percent of control (POC) of FACS Geo Mean [2]: 40 to 100%
percent of control (POC) of FACS Geo Mean [3]: 40 to 100%
percent of control (POC) of FACS Geo Mean [4]: 40 to 100%
percent of control (POC) of FACS Geo Mean [5]: 40 to 100%
percent of control (POC) of FACS Geo Mean [6]: 40 to 100%
binding result [7]: no binding (tested: 1 µg)
Kd [8]: 0.767 nM
POC (percent of control, FACS Geo Mean relative to binding to Ch. 1) [9]: < 1%
POC (percent of control, FACS Geo Mean relative to binding to Ch. 1) [10]: < 1%
POC (percent of control, FACS Geo Mean relative to binding to Ch. 1) [11]: < 1%
POC (percent of control, FACS Geo Mean relative to binding to Ch. 1) [12]: < 1%
POC (percent of control, FACS Geo Mean relative to binding to Ch. 1) [13]: < 1%
POC (percent of control, FACS Geo Mean relative to binding to Ch. 1) [14]: < 1%
POC (percent of control, FACS Geo Mean relative to binding to Ch. 1) [15]: < 1%
POC (percent of control, FACS Geo Mean relative to binding to Ch. 1) [16]: < 1%

B3: mAb 5F7.1 (antibody, human IgG2, lambda)
heavy: QVQLVQSGAEVKKPGASVKVPCKASGYTFTDYYINWVRQAPGQGLEWMGWINPNNGGTNYAQKFQGRVTMTRDTSISTAYMELRRLRSDDTAVYYCARERGGYEDWFDPWGQGTLVTVSSASTKGPSVFPLAPCSRSTSESTAALGCLVKDYFPEPVTVSWNSGALTSGVHTFPAVLQSSGLYSLSSVVTVPSSNFGTQTYTCNVDHKPSNTKVDKTVERKCCVECPPCPAPPVAGPSVFLFPPKPKDTLMISRTPEVTCVVVDVSHEDPEVQFNWYVDGVEVHNAKTKPREEQFNSTFRVVSVLTVVHQDWLNGKEYKCKVSNKGLPAPIEKTISKTKGQPREPQVYTLPPSREEMTKNQVSLTCLVKGFYPSDIAVEWESNGQPENNYKTTPPMLDSDGSFFLYSKLTVDKSRWQQGNVFSCSVMHEALHNHYTQKSLSLSPGK
light: QSVLTQPPSVSGAPGQRVTISCTGSSSNIGAGFDVHWYQQLPVTAPKLLIYGNRNRPSGVPARFSGSKSGTSASLAITGLQAEDEAVYYCQSYDSSLTVFGGGTKLTVLGQPKANPTVTLFPPSSEELQANKATLVCLISDFYPGAVTVAWKADGSPVKAGVETTKPSKQSNNKYAASSYLSLTPEQWKSHRSYSCQVTHEGSTVEKTVAPTECS
notes: as for B1
percent of control (POC) of FACS Geo Mean [1]: 40 to 100%
percent of control (POC) of FACS Geo Mean [2]: 40 to 100%
percent of control (POC) of FACS Geo Mean [3]: 40 to 100%
percent of control (POC) of FACS Geo Mean [4]: 40 to 100%
percent of control (POC) of FACS Geo Mean [5]: 40 to 100%
percent of control (POC) of FACS Geo Mean [6]: 40 to 100%
binding result [7]: no binding (tested: 1 µg)
Kd [8]: 0.185 nM
POC (percent of control, FACS Geo Mean relative to binding to Ch. 1) [9]: < 1%
POC (percent of control, FACS Geo Mean relative to binding to Ch. 1) [10]: < 1%
POC (percent of control, FACS Geo Mean relative to binding to Ch. 1) [11]: < 1%
POC (percent of control, FACS Geo Mean relative to binding to Ch. 1) [12]: < 1%
POC (percent of control, FACS Geo Mean relative to binding to Ch. 1) [13]: < 1%
POC (percent of control, FACS Geo Mean relative to binding to Ch. 1) [14]: < 1%
POC (percent of control, FACS Geo Mean relative to binding to Ch. 1) [15]: < 1%
POC (percent of control, FACS Geo Mean relative to binding to Ch. 1) [16]: < 1%
